From US20200024322A1 (Eli Lilly, published 2020)
Numbered stars: 1 amine (or outer) side, 2 acyl side, 3 side chain; on linkers, the order of the positions; unused ones are H or OH. Square brackets hold non-standard residues; d marks the D form. Side chains are listed from the residue outwards. Ends that are not written are not given here. * marks the point of attachment. C20 diacid = O=C(O)CCCCCCCCCCCCCCCCCCC(=O)*; αMePhe(2-F) = C[C@](N)(Cc1ccccc1F)C(=O)O; γGlu = O=C(O)[C@H](CCC(=O)[*:2])N[*:1]; Desaminohistidyl = O=C(CCc1c[nH]cn1)*; αMeF = C[C@](N)(Cc1ccccc1)C(=O)O; αMeL = CC(C)C[C@](C)(N)C(=O)O; cTA = not defined here; AEEA = NCCOCCOCC(=O)O; Aib = CC(C)(N)C(=O)O

T1: human GIP receptor (human, UniProt P48546 22-466)
T1 construct: whole, on cells; Used as crude membranes of stably transfected CHO cells; also called hGIPR
T1 sequence (looked up): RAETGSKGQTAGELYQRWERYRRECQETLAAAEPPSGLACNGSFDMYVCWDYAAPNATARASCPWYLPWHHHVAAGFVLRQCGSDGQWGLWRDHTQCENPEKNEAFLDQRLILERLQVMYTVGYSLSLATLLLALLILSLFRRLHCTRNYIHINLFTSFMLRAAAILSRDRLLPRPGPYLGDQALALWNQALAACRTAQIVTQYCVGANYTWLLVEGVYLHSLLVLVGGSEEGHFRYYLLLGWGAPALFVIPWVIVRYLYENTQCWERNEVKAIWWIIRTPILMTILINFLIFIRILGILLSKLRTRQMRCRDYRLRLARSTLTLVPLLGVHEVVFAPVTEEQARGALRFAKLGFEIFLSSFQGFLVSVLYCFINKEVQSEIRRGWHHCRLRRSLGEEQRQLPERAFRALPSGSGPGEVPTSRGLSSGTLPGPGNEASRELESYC


Assays:
human glucagon receptor = target: T2, human glucagon receptor (human, UniProt P47871 26-477); assay: SPA, [125I]-Gcg displacement, hGcgR membranes
T2 construct: whole, on cells; Used as crude membranes of stably transfected HEK293 cells; also called hGcgR; hGLcgR

human GLP-1 receptor = target: T3, human GLP-1 receptor (human, UniProt P43220 24-463); assay: SPA, [125I]-GLP-1 displacement, hGLP-1R membranes
T3 construct: whole, on cells; Used as crude membranes of stably transfected HEK293 cells; also called hGLP1R; hGLP-1R

human GIP receptor = target: T1, human GIP receptor; assay: SPA, [125I]-GIP displacement, hGIPR membranes

T2 sequence (P47871 26-477): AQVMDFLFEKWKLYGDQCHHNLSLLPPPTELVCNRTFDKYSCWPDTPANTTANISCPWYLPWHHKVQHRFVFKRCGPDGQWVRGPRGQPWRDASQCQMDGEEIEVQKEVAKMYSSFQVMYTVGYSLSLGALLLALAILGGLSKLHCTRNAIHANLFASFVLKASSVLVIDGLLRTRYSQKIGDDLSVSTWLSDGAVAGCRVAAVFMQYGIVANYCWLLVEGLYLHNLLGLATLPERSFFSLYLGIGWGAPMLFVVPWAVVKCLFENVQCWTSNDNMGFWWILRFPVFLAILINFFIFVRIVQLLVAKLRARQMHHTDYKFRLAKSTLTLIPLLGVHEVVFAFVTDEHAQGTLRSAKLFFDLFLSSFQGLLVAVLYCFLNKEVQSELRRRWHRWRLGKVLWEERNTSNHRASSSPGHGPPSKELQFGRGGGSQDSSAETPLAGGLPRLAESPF

Row | Binder | Ki (human glucagon receptor) | Ki (human GLP-1 receptor) | Ki (human GIP receptor)
1 | Y[Aib]EGT[αMeF]TSDYSI[αMeL]LDEK([AEEA-AEEA-γGlu-C20 diacid])AQQAFIEYLIEGGPSSGAPPPS-NH2 (N-terminus assumed; SMILES CC[C@H](C)[C@H](NC(=O)[C@H](CC(C)C)NC(=O)[C@H](Cc1ccc(O)cc1)NC(=O)[C@H](CCC(=O)O)NC(=O)[C@@H](NC(=O)[C@H](Cc1ccccc1)NC(=O)[C@H](C)NC(=O)[C@H](CCC(N)=O)NC(=O)[C@H](CCC(N)=O)NC(=O)[C@H](C)NC(=O)[C@H](CCCCNC(=O)COCCOCCNC(=O)COCCOCCNC(=O)CC[C@H](NC(=O)CCCCCCCCCCCCCCCCCCC(=O)O)C(=O)O)NC(=O)[C@H](CCC(=O)O)NC(=O)[C@H](CC(=O)O)NC(=O)[C@H](CC(C)C)NC(=O)[C@](C)(CC(C)C)NC(=O)[C@@H](NC(=O)[C@H](CO)NC(=O)[C@H](Cc1ccc(O)cc1)NC(=O)[C@H](CC(=O)O)NC(=O)[C@H](CO)NC(=O)[C@@H](NC(=O)[C@](C)(Cc1ccccc1)NC(=O)[C@@H](NC(=O)CNC(=O)[C@H](CCC(=O)O)NC(=O)C(C)(C)NC(=O)[C@@H](N)Cc1ccc(O)cc1)[C@@H](C)O)[C@@H](C)O)[C@@H](C)CC)[C@@H](C)CC)C(=O)N[C@@H](CCC(=O)O)C(=O)NCC(=O)NCC(=O)N1CCC[C@H]1C(=O)N[C@@H](CO)C(=O)N[C@@H](CO)C(=O)NCC(=O)N[C@@H](C)C(=O)N1CCC[C@H]1C(=O)N1CCC[C@H]1C(=O)N1CCC[C@H]1C(=O)N[C@@H](CO)C(N)=O) [Example 121] | 51.9 nM | 3.16 nM | 0.177 nM
2 | Y[Aib]EGT[αMePhe(2-F)]TSDYSI[Aib]LDEK([AEEA-AEEA-γGlu-C20 diacid])AQ[Aib]AFIEYLIEGG-NH2 (N-terminus assumed; SMILES CC[C@H](C)[C@H](NC(=O)[C@H](CC(C)C)NC(=O)[C@H](Cc1ccc(O)cc1)NC(=O)[C@H](CCC(=O)O)NC(=O)[C@@H](NC(=O)[C@H](Cc1ccccc1)NC(=O)[C@H](C)NC(=O)C(C)(C)NC(=O)[C@H](CCC(N)=O)NC(=O)[C@H](C)NC(=O)[C@H](CCCCNC(=O)COCCOCCNC(=O)COCCOCCNC(=O)CC[C@H](NC(=O)CCCCCCCCCCCCCCCCCCC(=O)O)C(=O)O)NC(=O)[C@H](CCC(=O)O)NC(=O)[C@H](CC(=O)O)NC(=O)[C@H](CC(C)C)NC(=O)C(C)(C)NC(=O)[C@@H](NC(=O)[C@H](CO)NC(=O)[C@H](Cc1ccc(O)cc1)NC(=O)[C@H](CC(=O)O)NC(=O)[C@H](CO)NC(=O)[C@@H](NC(=O)[C@](C)(Cc1ccccc1F)NC(=O)[C@@H](NC(=O)CNC(=O)[C@H](CCC(=O)O)NC(=O)C(C)(C)NC(=O)[C@@H](N)Cc1ccc(O)cc1)[C@@H](C)O)[C@@H](C)O)[C@@H](C)CC)[C@@H](C)CC)C(=O)N[C@@H](CCC(=O)O)C(=O)NCC(=O)NCC(N)=O) [Example 101] | 117 nM | 8.1 nM | 0.0953 nM
3 | Y[Aib][cTA]GT[αMeF]TSDYSI[αMeL]LDEK([AEEA-AEEA-γGlu-C20 diacid])AQ[Aib]AFIEYLIEGGPSSGAPPPS-NH2 (reading uncertain) [Example 120] | 93.6 nM | 11.7 nM | 0.11 nM
4 | YXEGTXTSDYSIXLDEKAQXAFIEYLIEGG (Aib2; αMeF6; αMeL13; K17((2-[2-(2-Amino-ethoxy)-ethoxy]-acetyl)2-(γ-Glu)-CO-(CH2)18-CO2H); Aib20; C-terminal NH2) [Example 100] | 44 nM | 4.13 nM | 0.115 nM
5 | YXEGTXTSDYSIXLDEKAQXEFIEYLIEGG (Aib2; αMeF(2F)6; αMeL13; K17((2-[2-(2-Amino-ethoxy)-ethoxy]-acetyl)2-(γ-Glu)-CO-(CH2)16-CO2H); Aib20; C-terminal NH2) [Example 104] | 123 nM | 3.91 nM | 0.0565 nM
6 | YXEGTXTSDYSIXLDKKAQXAFIEYLIEGG (Aib2; αMeF6; αMeL13; K17((2-[2-(2-Amino-ethoxy)-ethoxy]-acetyl)2-(γ-Glu)-CO-(CH2)18-CO2H); Aib20; C-terminal NH2) [Example 99] | 23.6 nM | 1.15 nM | 0.027 nM
7 | YXEGTXTSDYSIXLDEKAQXEFIEYLIEGG (Aib2; αMeF(2F)6; αMeL13; K17((2-[2-(2-Amino-ethoxy)-ethoxy]-acetyl)2-(γ-Glu)-CO-(CH2)18-CO2H); Aib20; C-terminal NH2) [Example 103] | 40.3 nM | 6.68 nM | 0.0645 nM
8 | Y[Aib]EGT[αMeF]TSDYSI[Aib]LDEK([AEEA-AEEA-γGlu-C20 diacid])AQ[Aib]AFIEYLIEGGPSSGAPPPS-NH2 (N-terminus assumed; SMILES CC[C@H](C)[C@H](NC(=O)[C@H](CC(C)C)NC(=O)[C@H](Cc1ccc(O)cc1)NC(=O)[C@H](CCC(=O)O)NC(=O)[C@@H](NC(=O)[C@H](Cc1ccccc1)NC(=O)[C@H](C)NC(=O)C(C)(C)NC(=O)[C@H](CCC(N)=O)NC(=O)[C@H](C)NC(=O)[C@H](CCCCNC(=O)COCCOCCNC(=O)COCCOCCNC(=O)CC[C@H](NC(=O)CCCCCCCCCCCCCCCCCCC(=O)O)C(=O)O)NC(=O)[C@H](CCC(=O)O)NC(=O)[C@H](CC(=O)O)NC(=O)[C@H](CC(C)C)NC(=O)C(C)(C)NC(=O)[C@@H](NC(=O)[C@H](CO)NC(=O)[C@H](Cc1ccc(O)cc1)NC(=O)[C@H](CC(=O)O)NC(=O)[C@H](CO)NC(=O)[C@@H](NC(=O)[C@](C)(Cc1ccccc1)NC(=O)[C@@H](NC(=O)CNC(=O)[C@H](CCC(=O)O)NC(=O)C(C)(C)NC(=O)[C@@H](N)Cc1ccc(O)cc1)[C@@H](C)O)[C@@H](C)O)[C@@H](C)CC)[C@@H](C)CC)C(=O)N[C@@H](CCC(=O)O)C(=O)NCC(=O)NCC(=O)N1CCC[C@H]1C(=O)N[C@@H](CO)C(=O)N[C@@H](CO)C(=O)NCC(=O)N[C@@H](C)C(=O)N1CCC[C@H]1C(=O)N1CCC[C@H]1C(=O)N1CCC[C@H]1C(=O)N[C@@H](CO)C(N)=O) [Example 117] | 192 nM | 6.96 nM | 0.0497 nM
9 | [Desaminohistidyl][Aib]EGTFTSDYSILLDKK([AEEA-AEEA-γGlu-C20 diacid])AQ[Aib]AFIEYLIEGGPSSGAPPPS-NH2 (also: reversed amide ψ[NHCO] between residues 1 and 2) [Example 105] | 20.4 nM | 0.871 nM | 0.119 nM
10 | XXEGTFTSDYSILLDKKAQXAFIEYLIEGGPSSGAPPPS (DesTyr1; Aib2; K17((2-[2-(2-Amino-ethoxy)-ethoxy]-acetyl)2-(γ-Glu)-CO-(CH2)18-CO2H); Aib20; C-terminal NH2) [Example 107] | 303 nM | 0.867 nM | 0.0425 nM
11 | [Desaminohistidyl][Aib]EGTFTSDYSILLDKK([AEEA-AEEA-γGlu-C20 diacid])AQ[Aib]AFIEYLIEGGPSSGAPPPS-NH2 (SMILES CC[C@H](C)[C@H](NC(=O)[C@H](CC(C)C)NC(=O)[C@H](Cc1ccc(O)cc1)NC(=O)[C@H](CCC(=O)O)NC(=O)[C@@H](NC(=O)[C@H](Cc1ccccc1)NC(=O)[C@H](C)NC(=O)C(C)(C)NC(=O)[C@H](CCC(N)=O)NC(=O)[C@H](C)NC(=O)[C@H](CCCCNC(=O)COCCOCCNC(=O)COCCOCCNC(=O)CC[C@H](NC(=O)CCCCCCCCCCCCCCCCCCC(=O)O)C(=O)O)NC(=O)[C@H](CCCCN)NC(=O)[C@H](CC(=O)O)NC(=O)[C@H](CC(C)C)NC(=O)[C@H](CC(C)C)NC(=O)[C@@H](NC(=O)[C@H](CO)NC(=O)[C@H](Cc1ccc(O)cc1)NC(=O)[C@H](CC(=O)O)NC(=O)[C@H](CO)NC(=O)[C@@H](NC(=O)[C@H](Cc1ccccc1)NC(=O)[C@@H](NC(=O)CNC(=O)[C@H](CCC(=O)O)NC(=O)C(C)(C)NC(=O)CCc1c[nH]cn1)[C@@H](C)O)[C@@H](C)O)[C@@H](C)CC)[C@@H](C)CC)C(=O)N[C@@H](CCC(=O)O)C(=O)NCC(=O)NCC(=O)N1CCC[C@H]1C(=O)N[C@@H](CO)C(=O)N[C@@H](CO)C(=O)NCC(=O)N[C@@H](C)C(=O)N1CCC[C@H]1C(=O)N1CCC[C@H]1C(=O)N1CCC[C@H]1C(=O)N[C@@H](CO)C(N)=O) [Example 106] | 515 nM | 1.2 nM | 0.179 nM
12 | Y[Aib]EGT[αMeF]TSDYSILK([AEEA-AEEA-γGlu-C20 diacid])DKIAQ[Aib]AFIEYLIEGG-NH2 (N-terminus assumed; SMILES CC[C@H](C)[C@H](NC(=O)[C@H](CCCCN)NC(=O)[C@H](CC(=O)O)NC(=O)[C@H](CCCCNC(=O)COCCOCCNC(=O)COCCOCCNC(=O)CC[C@H](NC(=O)CCCCCCCCCCCCCCCCCCC(=O)O)C(=O)O)NC(=O)[C@H](CC(C)C)NC(=O)[C@@H](NC(=O)[C@H](CO)NC(=O)[C@H](Cc1ccc(O)cc1)NC(=O)[C@H](CC(=O)O)NC(=O)[C@H](CO)NC(=O)[C@@H](NC(=O)[C@](C)(Cc1ccccc1)NC(=O)[C@@H](NC(=O)CNC(=O)[C@H](CCC(=O)O)NC(=O)C(C)(C)NC(=O)[C@@H](N)Cc1ccc(O)cc1)[C@@H](C)O)[C@@H](C)O)[C@@H](C)CC)C(=O)N[C@@H](C)C(=O)N[C@@H](CCC(N)=O)C(=O)NC(C)(C)C(=O)N[C@@H](C)C(=O)N[C@@H](Cc1ccccc1)C(=O)N[C@H](C(=O)N[C@@H](CCC(=O)O)C(=O)N[C@@H](Cc1ccc(O)cc1)C(=O)N[C@@H](CC(C)C)C(=O)N[C@H](C(=O)N[C@@H](CCC(=O)O)C(=O)NCC(=O)NCC(N)=O)[C@@H](C)CC)[C@@H](C)CC) [Example 93] | 15.7 nM | 1.89 nM | 0.0859 nM
